Measurements: the supplement of paper PMC9170038

Tested on: MS2 coat protein
Assay: apparent KD of MS2 coat protein; designed switch direction (-1 OFF switch, 1 ON switch): 1; higher = weaker reporter binding
How it was run: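 The apparent KD reported per design is the median over clusters of curve fits to normalised cluster fluorescence. The RNA switches were transcribed on Illumina chips by stalled E. coli RNA polymerase. SNAP-549-labelled MS2 coat protein was titrated from 0.7 or 1.5 nM, doubling up to 3 µM, in Tris-HCl pH 7.5 buffer containing KCl, MgCl2, BSA, DTT, tRNA and Tween-20, with no input, 200 uM small-molecule ligand, or an oligonucleotide input.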

[1] = input ligand: microRNA oligo, concentration not stated
[2] = Eterna round: R95, input ligand: FMN 200 uM
[3] = Eterna round: R95, input ligand: microRNA oligo, concentration not stated
[4] = Eterna round: R95, input ligand: none

## UAAAUGAAGUAAGGAUAUACAUGAGGAUCACUCGUAGAAGGUACUAUACAUGAGGAUCACCCAUGUGCCGGUCAGAAGACUGGA [Mat - Same State NG 1 - JL mod - D6] (Eterna round: R96, puzzle: Same State NG 1)
Input ligand: FMN 200 uM
  apparent KD of MS2 coat protein: 804 nM
[1]
  apparent KD of MS2 coat protein: 533 nM
Input ligand: none
  apparent KD of MS2 coat protein: 943 nM

## GGUGGGUUACUACCAACACAUGAGGAUCACCCAUGUUUUGGGAAGGAUAUGGUACCUAUUUGGUACCAGAAGGUCCAGUUGGUG [salish99_SSNG3_r04_703] (Eterna round: R96, puzzle: Same State NG 3)
Input ligand: FMN 200 uM
  apparent KD of MS2 coat protein: 49.8 nM
[1]
  apparent KD of MS2 coat protein: 79.8 nM
Input ligand: none
  apparent KD of MS2 coat protein: 125 nM

## ACAUGAGACAGAGGAUAUGUUGUACCUACAUGUGACAUGAGGAUCACCCAUGUGGUAAGUAUGAUACAGAAGGCUGAGAUAUGU [Equivalance 64 - Jieux - Same State NG 2] (Eterna round: R96, puzzle: Same State NG 2)
Input ligand: FMN 200 uM
  apparent KD of MS2 coat protein: 15 nM
[1]
  apparent KD of MS2 coat protein: 18.3 nM
Input ligand: none
  apparent KD of MS2 coat protein: 24.2 nM

## UAGAGAGGAAGCGAGGAUAUCGUGUUAGGUACAUGAGGAUCACCCAUGUUUUAAGUAGAGAUAGGCGAGAAGGCGCAGGAGAAAA [JR_SS2_Sub088] (puzzle: Same State 2)
[2]
  apparent KD of MS2 coat protein: 28.6 nM
[3]
  apparent KD of MS2 coat protein: 26.7 nM
[4]
  apparent KD of MS2 coat protein: 30.2 nM

## UUGCUCGUGUGAGGAUAUGCCGCCGUUUCGGCUGCAGAAGGUGCUACGUUACAUGAGGAUCACCCAUGUCUCUGUUGUUUCGUG [salish99_SSNG1_r04_941] (Eterna round: R96, puzzle: Same State NG 1)
Input ligand: FMN 200 uM
  apparent KD of MS2 coat protein: 17.5 nM
[1]
  apparent KD of MS2 coat protein: 19.7 nM
Input ligand: none
  apparent KD of MS2 coat protein: 21.1 nM

## CUAGCGCAUGCAGGAUAUCUGGUGUAUGCCUCGAGAUAACAUGAGGAUCACCCAUGUCCGCUCAAAGAGAAGGGCAUGCAAAUG [Eternabot solution 8] (Eterna round: R96, puzzle: Same State NG 2)
Input ligand: FMN 200 uM
  apparent KD of MS2 coat protein: 1180 nM
[1]
  apparent KD of MS2 coat protein: 177 nM
Input ligand: none
  apparent KD of MS2 coat protein: 618 nM

## GUUACAUGAGGAUCACCCAUGUAUGUGUGGGAGUAAGUGUCUUAGGAUAUCUAGUAUUCAAUUUAAGAGAAGGAAGAUUGUUGU [JMF's solution 58] (Eterna round: R96, puzzle: Same State NG 3)
Input ligand: FMN 200 uM
  apparent KD of MS2 coat protein: 109 nM
[1]
  apparent KD of MS2 coat protein: 64.2 nM
Input ligand: none
  apparent KD of MS2 coat protein: 93.9 nM

## AAACACAGCAUAACGCUGUGACAUGAGGAUCACCCAUGUACACAGGAUAUCAUGGCAUAACGCCAUGAGAAGGGUGAUCAAGAC [Arxeerte] (Eterna round: R96, puzzle: Same State NG 3)
Input ligand: FMN 200 uM
  apparent KD of MS2 coat protein: 20.5 nM
[1]
  apparent KD of MS2 coat protein: 2.71 nM
Input ligand: none
  apparent KD of MS2 coat protein: 55.3 nM

## GUGCUCGUGUAAGGAUAUGCAGCCGUUUCGGCUGCAGAAGGUACUAUAAUACAUGAGGAUCACCCAUGUCUCUUUUGUUUGGUG [salish99_SSNG1_r04_907] (Eterna round: R96, puzzle: Same State NG 1)
Input ligand: FMN 200 uM
  apparent KD of MS2 coat protein: 234 nM
[1]
  apparent KD of MS2 coat protein: 111 nM
Input ligand: none
  apparent KD of MS2 coat protein: 222 nM

## GAGGAUGAACUACAGGAUAUAUAGCAGAUGACAUGAGGAUCACCCAUGUAAGAGAAAGGAGGGAGAUAGAAGGGUAUGGGAGGUG [JR_SS2_Sub037] (puzzle: Same State 2)
[2]
  apparent KD of MS2 coat protein: 34.4 nM
[3]
  apparent KD of MS2 coat protein: 28.6 nM
[4]
  apparent KD of MS2 coat protein: 27.1 nM

## GUUCCAAGGUGAGGAUAUGCAGAGGAUCACCCUGUAGAAGGCAUCAGGUGAGGAUAUGCAGAGGAUCACCCUGUAGAAGGCAUC [pwkr ssNG DX.10] (Eterna round: R96, puzzle: Same State NG 1)
Input ligand: FMN 200 uM
  apparent KD of MS2 coat protein: 105 nM
[1]
  apparent KD of MS2 coat protein: 180 nM
Input ligand: none
  apparent KD of MS2 coat protein: 295 nM

## CAGCGCUGUCGAGAGGAUAUGCGGUGAUGGACAUGAGGAUCACCCAUGUUAGCGACAGCAUCACGGCAGAAGGCUCUACCGCUGC [Soteed Omei mod 18] (puzzle: Same State 2)
[2]
  apparent KD of MS2 coat protein: 19.3 nM
[3]
  apparent KD of MS2 coat protein: 18.8 nM
[4]
  apparent KD of MS2 coat protein: 30.3 nM

## CGUAGGUAGCUGGAGGAUAUUCGAGUGGUAACAUGAGGAUCACCCAUGUGGUGAGAGGAACAUGAGGAGAAGGCUAGCUGCCUGC [JL-ss2-3.15 JL mod] (Eterna round: R96, puzzle: Same State 2)
Input ligand: FMN 200 uM
  apparent KD of MS2 coat protein: 1290 nM
[1]
  apparent KD of MS2 coat protein: 925 nM
Input ligand: none
  apparent KD of MS2 coat protein: 906 nM

## GGAUGACGGACAGGAUAUUGAUUCUAAUGGUUUCAAGAAGGGUCUUCGAUAUAAACGACCAGUUACAUGAGGAUCACCCAUGUU [JR_SSNG1_Sub033] (Eterna round: R96, puzzle: Same State NG 1)
Input ligand: FMN 200 uM
  apparent KD of MS2 coat protein: 25.9 nM
[1]
  apparent KD of MS2 coat protein: 66 nM
Input ligand: none
  apparent KD of MS2 coat protein: 45 nM

## AUGUGUUUGCGAGGAUAUCGUUUGUUGAAGUUACGAGAAGGCGCUCACUUUACAUGAGGAUCACCCAUGUCUUUGAUGCAUGAU [JR_SSNG1_Sub073] (Eterna round: R96, puzzle: Same State NG 1)
Input ligand: FMN 200 uM
  apparent KD of MS2 coat protein: 46.6 nM
[1]
  apparent KD of MS2 coat protein: 40.2 nM
Input ligand: none
  apparent KD of MS2 coat protein: 44.1 nM

## UGGCUGGUGCUAGGAUAUGCAUGAGGCCUCCUCGUAGAAGGAGCGCGACAUGAGGAUCACCCAUGUAGCCGUCCGUAGACGGCU [salish99_SSNG1_r04_012] (Eterna round: R96, puzzle: Same State NG 1)
Input ligand: FMN 200 uM
  apparent KD of MS2 coat protein: 165 nM
[1]
  apparent KD of MS2 coat protein: 100 nM
Input ligand: none
  apparent KD of MS2 coat protein: 193 nM

## CGCGGCAAGGAAGGAUAUGGGACGAAAACGUACCUAGAAGGUCCACAUGAGGAUCACCCAUGUACCAAGAAAACCGCUAAAUUA [Atceorer] (Eterna round: R96, puzzle: Same State NG 1)
Input ligand: FMN 200 uM
  apparent KD of MS2 coat protein: 70.7 nM
[1]
  apparent KD of MS2 coat protein: 177 nM
Input ligand: none
  apparent KD of MS2 coat protein: 207 nM

## UAUUCAUUCAGAGGAUAUUGUUUAUCUCUAUUUCAAGAAGGCUGAUUUUACUACUUACUUAUGAAACAUGAGGAUCACCCAUGU [JR_SSNG1_Sub020] (Eterna round: R96, puzzle: Same State NG 1)
[1]
  apparent KD of MS2 coat protein: 18.7 nM

## GUGGUCAGACAUGAGGAUCACCCAUGUGGAAUAAAUAAGGAAGAGGAUAUCGAAUAUAGGAUAUACGAGAAGGUUUGGUUGGUG (Eterna round: R96, puzzle: Same State NG 3)
Input ligand: FMN 200 uM
  apparent KD of MS2 coat protein: 117 nM
[1]
  apparent KD of MS2 coat protein: 77.5 nM
Input ligand: none
  apparent KD of MS2 coat protein: 94.6 nM

## AACAGUCGGCGAGGAUAUGGACGUACGGACUAACCCGCGCGGCUCACAUGAGGAUCACCCAUGUUCUAGAAGGCGCCACUGAAA [Xeorendi] (Eterna round: R96, puzzle: Same State NG 2)
Input ligand: FMN 200 uM
  apparent KD of MS2 coat protein: 13.8 nM
[1]
  apparent KD of MS2 coat protein: 45.3 nM
Input ligand: none
  apparent KD of MS2 coat protein: 50.9 nM

## UUGAAGACGGACAAGGAUAUGUCAAAGGAAACAUGAGGAUCACCCAUGUGGAGAUUGGAGAAGAAACAGAAGGUGUACGGAGAGA [JR_SS2_Sub008] (puzzle: Same State 2)
[2]
  apparent KD of MS2 coat protein: 27.5 nM
[3]
  apparent KD of MS2 coat protein: 13.6 nM
[4]
  apparent KD of MS2 coat protein: 21.4 nM

## UAGACAAGCUUUAUGUUCUUCCUUUUCCUACAUGAGGAUCACCCAUGUAGUCUGUCGAUUGAGAGAGUAGUUGAGAA [JR_SHM208A_Sub024] (puzzle: Sensor for hsa-mir-208a)
[2]
  apparent KD of MS2 coat protein: 17.8 nM
[3]
  apparent KD of MS2 coat protein: 16.5 nM
[4]
  apparent KD of MS2 coat protein: 18.2 nM

## AAAGUACAUGAGGAUCACCCAUGUCCAAAGAAGUAAGGAUAUACGGAAAGAAAAGAAAAUGUAGAAGGUACAAGAA [Same State 1 #3] (puzzle: Same State 1)
[2]
  apparent KD of MS2 coat protein: 33 nM
[3]
  apparent KD of MS2 coat protein: 65.8 nM
[4]
  apparent KD of MS2 coat protein: 57.6 nM
